From the supplement of paper PMC7877785
± gives the uncertainty stated by the source.

Assay: self-splicing fitness, log relative to wild type (ln ratio); higher = more splicing; Tetrahymena group I intron in knt gene, E. coli kanamycin selection, DiMSum; sequences stand for … in CUCUCU…GGAGGGAAAAGUUAUCAGGCAUGCACCUGGUAGCUAGUCUUUAAACCAAUAGAUUGCAUCGGUUUAAAAGGCAAGACCGUCAAAUUGCGGGAAAGGGGUCAACAGCCGUUCAGUACCAAGUCUCAGGGGAAACUUUGAGAUGGCCUUGCAAAGGGUAUGGUAAUAAGCUGACGGACAUGGUCCUAACCACGCAGCCAAGUCCUAAGUCAACAGAUCUUCUGUUGAUAUGGAUGCAGUUCACAGACUAAAUGUCGGUCGGGGAAGAUGUAUUCUUCUCAUAAGAUAUAGUCGGACCUCUCCUUAAUGGGAGCUAGCGGAUGAAGUGAUGCAACACUGGAGCCGCUGGGAACUAAUUUGUAUGCGAAAGUAUAUUGAUUAGUUUUGGAGUACUCGUGGUCG
Outline: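 A randomised library covering all eight P1ex-region intron nucleotides was built with the intron in the knt kanamycin-resistance gene on pET-22b(+) and held in E. coli BL21(DE3). Cells were grown overnight at 37°C or 30°C on LB agar, with or without 25 μg/mL kanamycin, plus 100 μg/mL carbenicillin, 50 μM IPTG and 0.2% rhamnose, and pooled colonies were amplicon-sequenced on an Illumina HiSeq 2500. DiMSum fitness is the error-weighted combination of wild-type-normalised replicate fold changes, kanamycin versus none.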

Sequence | self-splicing fitness (ln) (30 °C) | self-splicing fitness (ln) (37 °C)
CCGAAGCAAUAUUACGCCUU | -3.35 ± 0.36 | -1.21 ± 0.3
CCGAAGCAAUAUUACGCUGA | -3.08 ± 0.27 | -3.41 ± 0.42
CCGAAGCAAUAUUACGGGAA | -2.26 ± 0.25 | -1.73 ± 0.32
CCGAAGCAAUAUUACGGGUC | -3.13 ± 0.22 | -3.03 ± 0.37
CCGAAGCAAUAUUACGGUCC | -3.68 ± 0.46 | -2.26 ± 0.26
CCGAAGCAAUAUUACGGUCU | -2.93 ± 0.17 | -3.23 ± 0.25
CCGAAGCAAUAUUACGUGCG | -1.04 ± 0.085 | -0.542 ± 0.096
CCGAAGCAAUAUUACGUUUU | -3.83 ± 0.17 | -3.26 ± 0.18
CCGCAGCAAUAUUACGAACC | -1.84 ± 0.39 | 
CCGCAGCAAUAUUACGACCG | -0.576 ± 0.074 | 0.229 ± 0.11
CCGCAGCAAUAUUACGAGAC | -2.24 ± 0.22 | 
CCGCAGCAAUAUUACGAUGU | -3.21 ± 0.14 | -2.83 ± 0.17
CCGCAGCAAUAUUACGCAAG | -1.41 ± 0.095 | -1.18 ± 0.13
CCGCAGCAAUAUUACGCAGA | -2.89 ± 0.2 | -2.25 ± 0.17
CCGCAGCAAUAUUACGCAUC | -3.93 ± 0.28 | -1.95 ± 0.22
CCGCAGCAAUAUUACGCGAG | -3.17 ± 0.12 | -2.2 ± 0.16
CCGCAGCAAUAUUACGCGGG | -4.07 ± 0.14 | -3.74 ± 0.12
CCGCAGCAAUAUUACGCUAG | -1.53 ± 0.1 | -2.05 ± 0.12
CCGCAGCAAUAUUACGCUUC | -4.17 ± 0.46 | 
CCGCAGCAAUAUUACGGACC | -3.45 ± 0.41 | 
CCGCAGCAAUAUUACGGAGA | -2.53 ± 0.17 | -2.36 ± 0.21
CCGCAGCAAUAUUACGGCAU | -3.29 ± 0.2 | -2.38 ± 0.17
CCGCAGCAAUAUUACGGGCG | -2.13 ± 0.11 | -1.95 ± 0.12
CCGCAGCAAUAUUACGGGUC | -3.86 ± 0.18 | -2.69 ± 0.19
CCGCAGCAAUAUUACGGUGC | -2.98 ± 0.18 | -2.63 ± 0.22

Sequence | self-splicing fitness (ln) (30 °C) | self-splicing fitness (ln) (37 °C)
CCGCAGCAAUAUUACGUAAU | -3.78 ± 0.15 | -2.3 ± 0.19
CCGCAGCAAUAUUACGUACA | -2.89 ± 0.16 | -2.4 ± 0.23
CCGCAGCAAUAUUACGUAUA | -3.6 ± 0.16 | -3.03 ± 0.19
CCGCAGCAAUAUUACGUCAG | -0.624 ± 0.054 | 0.0667 ± 0.065
CCGCAGCAAUAUUACGUCGG | -3.9 ± 0.21 | -2.28 ± 0.2
CCGCAGCAAUAUUACGUGCG | -4.67 ± 0.22 | -2.86 ± 0.15
CCGCAGCAAUAUUACGUGUA | -3.25 ± 0.17 | -1.38 ± 0.13
CCGCAGCAAUAUUACGUUCA | -3.89 ± 0.27 | -2 ± 0.16
CCGCAGCAAUAUUACGUUGC | -3.32 ± 0.14 | -2.7 ± 0.21
CCGGAGCAAUAUUACGAUUC |  | -2.85 ± 0.38
CCGGAGCAAUAUUACGCCUU | -2.67 ± 0.36 | -3.35 ± 0.47
CCGGAGCAAUAUUACGCUAC | -2.55 ± 0.49 | 
CCGGAGCAAUAUUACGCUUA | -2.45 ± 0.24 | -3.19 ± 0.35
CCGGAGCAAUAUUACGGAGG |  | -2.35 ± 0.25
CCGGAGCAAUAUUACGGGAU | -3.11 ± 0.36 | -2.44 ± 0.25
CCGGAGCAAUAUUACGUAUA | -3.21 ± 0.23 | -2.49 ± 0.36
CCGGAGCAAUAUUACGUAUG | -1.41 ± 0.071 | -0.561 ± 0.083
CCGGAGCAAUAUUACGUCAC | -3.61 ± 0.34 | -2.71 ± 0.38
CCGGAGCAAUAUUACGUCCU | -4.9 ± 0.31 | -2.29 ± 0.16
CCGGAGCAAUAUUACGUCUG | -1.22 ± 0.14 | -0.402 ± 0.16
CCGGAGCAAUAUUACGUUUA |  | -1.99 ± 0.25
CCGUAGCAAUAUUACGAGAG | -3.86 ± 0.29 | -2.54 ± 0.24
CCGUAGCAAUAUUACGAUAU | -2 ± 0.19 | -3.31 ± 0.43
CCGUAGCAAUAUUACGCCAG | -1.17 ± 0.16 | -0.533 ± 0.22
CCGUAGCAAUAUUACGCCUA | -3.02 ± 0.34 | -2.11 ± 0.27

Sequence | self-splicing fitness (ln) (30 °C) | self-splicing fitness (ln) (37 °C)
CCGUAGCAAUAUUACGCUCU | -2.65 ± 0.37 | -2.48 ± 0.39
CCGUAGCAAUAUUACGCUGU | -3.79 ± 0.25 | -3.17 ± 0.26
CCGUAGCAAUAUUACGGAAA | -3.22 ± 0.42 | -2.52 ± 0.46
CCGUAGCAAUAUUACGGACA | -1.88 ± 0.35 | 
CCGUAGCAAUAUUACGGCAU | -3.15 ± 0.23 | -2.85 ± 0.25
CCGUAGCAAUAUUACGGCCU | -1.36 ± 0.14 | -2.7 ± 0.41
CCGUAGCAAUAUUACGGCGC | -3.01 ± 0.33 | -1.48 ± 0.32
CCGUAGCAAUAUUACGGGGA | -3.45 ± 0.25 | -3.11 ± 0.25
CCGUAGCAAUAUUACGGUCG | -0.844 ± 0.074 | -0.447 ± 0.095
CCGUAGCAAUAUUACGGUGA | -3.66 ± 0.26 | -2.45 ± 0.25
CCGUAGCAAUAUUACGGUGG | -2.59 ± 0.16 | -1.1 ± 0.17
CCGUAGCAAUAUUACGUAAG | 0.191 ± 0.047 | 0.106 ± 0.062
CCGUAGCAAUAUUACGUAGG | -3.19 ± 0.17 | -1.87 ± 0.19
CCGUAGCAAUAUUACGUCAU | -3.33 ± 0.24 | -2.32 ± 0.28
CCGUAGCAAUAUUACGUCGA | -1.93 ± 0.14 | -1.57 ± 0.13
CCGUAGCAAUAUUACGUCUG | -0.102 ± 0.054 | 0.303 ± 0.067
CCGUAGCAAUAUUACGUGAG | -3.11 ± 0.34 | -2.51 ± 0.38
CCGUAGCAAUAUUACGUGCG | -2.39 ± 0.11 | -1.68 ± 0.12
CCGUAGCAAUAUUACGUGUC | -3.6 ± 0.29 | -1.87 ± 0.32
CCGUAGCAAUAUUACGUUAA | -3.18 ± 0.4 | -2.67 ± 0.31
CCGUAGCAAUAUUACGUUCG | -0.619 ± 0.066 | 0.0526 ± 0.095
CCGUAGCAAUAUUACGUUGG | -4.39 ± 0.27 | -3.1 ± 0.19
CCGUAGCAAUAUUACGUUUU | -4.21 ± 0.23 | -2.87 ± 0.22
CCUAAGCAAUAUUACGAAGG | -3.55 ± 0.16 | -2.9 ± 0.2
CCUAAGCAAUAUUACGAAUC | -0.765 ± 0.2 | 

Sequence | self-splicing fitness (ln) (30 °C) | self-splicing fitness (ln) (37 °C)
CCUAAGCAAUAUUACGACGC |  | -1.59 ± 0.42
CCUAAGCAAUAUUACGACGG | -3.49 ± 0.19 | -2.24 ± 0.24
CCUAAGCAAUAUUACGACUA | -2.87 ± 0.4 | -1.59 ± 0.33
CCUAAGCAAUAUUACGAGAA | -2.67 ± 0.36 | 
CCUAAGCAAUAUUACGAGAU | -3.2 ± 0.27 | -3.33 ± 0.31
CCUAAGCAAUAUUACGAGGC | -3.32 ± 0.15 | -3.61 ± 0.22
CCUAAGCAAUAUUACGAUAG | -1.12 ± 0.065 | -0.285 ± 0.074
CCUAAGCAAUAUUACGCAAC | -3.08 ± 0.26 | -3.03 ± 0.4
CCUAAGCAAUAUUACGCGCA | -3.25 ± 0.24 | -2.2 ± 0.19
CCUAAGCAAUAUUACGCGGU | -2.54 ± 0.13 | -3.06 ± 0.18
CCUAAGCAAUAUUACGCUAU | -4.71 ± 0.39 | -2.35 ± 0.24
CCUAAGCAAUAUUACGGAGA |  | -1.46 ± 0.22
CCUAAGCAAUAUUACGGAGG | -4.42 ± 0.29 | -2.71 ± 0.31
CCUAAGCAAUAUUACGGCAA | -3.72 ± 0.21 | -2.91 ± 0.23
CCUAAGCAAUAUUACGGCCU | -1.9 ± 0.16 | -1.84 ± 0.37
CCUAAGCAAUAUUACGGGCC | -3.18 ± 0.27 | -2.12 ± 0.22
CCUAAGCAAUAUUACGGGGG | -3.51 ± 0.2 | -2.5 ± 0.24
CCUAAGCAAUAUUACGGGUC | -4.66 ± 0.36 | -3.25 ± 0.22
CCUAAGCAAUAUUACGUCUA | -3.9 ± 0.24 | -3.48 ± 0.36
CCUAAGCAAUAUUACGUCUU | -3.47 ± 0.18 | -2.42 ± 0.22
CCUAAGCAAUAUUACGUGUA | -3.61 ± 0.15 | -1.89 ± 0.14
CCUAAGCAAUAUUACGUUUA | -3.45 ± 0.18 | -3.14 ± 0.2
CCUCAGCAAUAUUACGAAAG | -1.51 ± 0.069 | -0.45 ± 0.087
CCUCAGCAAUAUUACGACCA | -2.93 ± 0.34 | -1.99 ± 0.46
